The target of assay [1] is T1, Recombinant human CD3 epsilon/delta heterodimer, his tag protein (Acro Biosystems) (human, UniProt P07766 23-126; P04234 22-105).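 Note: measured at 25 °C in HEPES-buffered saline with EDTA and Tween 20 at pH 7.4, values are means of three independent runs.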
T1 construct: bought
As to the kind of experiment: SPR Biacore T200, CD3 e/d-his on CM5, construct injected, 1:1 model. (In general: SPR reads the build-up and loss of mass on a sensor chip optically.)

Another assay concerns the target huCD28 (human, UniProt P10747 19-152, limits assumed). As to the kind of experiment: SPR, OAA format.

B1: v37664 (bispecific antibody)
heavy: QVQLVESGGGLVQPGGSLRLSCSVSGIDLSSNPMIWVRQAPGKGLQYIGIIDTDGSTYYADWAKGRFTISKDSTTVYLQINSPRAEDTAVYYCARRLHGSSNGYYDDLWGQGTLVTVSSGGGGSGGGGSGGGGSGGGGSDGQMTQSPSSVSASVGDRVTITCQASQSIYSYLSWYQQKPGQRPKLLIYKASTLASGVPSRFSGSGSGTDFTLTISSVQPEDFATYYCQQGYTVTNVDKNTFGGGTKVEIKGGGGSGEVQLVESGGGLVQPGGSLRLSCAASGVTFNYYGMSWIRQAPGKGLEWVASITSSGGRIYYPDSVKGRFTISRENTQKTLYLQMNSLRAEDTAVYYCTLDGRDGWVAYWGQGTLVTVSSASTKGPSVFPLAPSSKSTSGGTAALGCLVKDYFPEPVTVSWNSGALTSGVHTFPAVLQSSGLYSLSSVVTVPSSSLGTQTYICNVNHKPSNTKVDKKVEPKSCDKTHTCPPCPAPEAAGGPSVFLFPPKPKDTLMISRTPEVTCVVVSVSHEDPEVKFNWYVDGVEVHNAKTKPREEQYNSTYRVVSVLTVLHQDWLNGKEYKCKVSNKALPAPIEKTISKAKGQPREPQVYVLPPSRDELTKNQVSLLCLVKGFYPSDIAVEWESNGQPENNYLTWPPVLDSDGSFFLYSKLTVDKSRWQQGNVFSCSVMHEALHNHYTQKSLSLSPG
light: NFMLTQPHSVSESPGKTVTISCKRNTGNIGSNYVNWYQQHEGSSPTTIIYRNDKRPDGVSDRFSGSIDRSSKSASLTISNLKTEDEADYFCQSYSSGFIFGGGTKLTVLGQPKAAPSVTLFPPSSEELQANKATLVCLISDFYPGAVTVAWKADSSPVKAGVETTTPSKQSNNKYAASSYLSLTPEQWKSHRSYSCQVTHEGSTVEKTVAPTECS
Fc: not shown
notes: also called anti-(CLDN18.2xCD3) bispecific control
In the case of B1, in assay [1], the Kd (commonly the constant that tells how readily two partners part at equilibrium) was determined as 0.127 µM; the koff (in general, the first-order rate constant of dissociation) is 0.0228 s⁻¹; the on-rate (kon) – broadly, the second-order rate constant of association – was 180000 M⁻¹ s⁻¹.

B2: v37667 (bispecific antibody)
heavy 1: not shown
heavy 2: QVQLVESGGGLVQPGGSLRLSCSVSGIDLSSNPMIWVRQAPGKGLQYIGIIDTDGSTYYADWAKGRFTISKDSTTVYLQINSPRAEDTAVYYCARRLHGSSNGYYDDLWGQGTLVTVSSGGGGSGGGGSGGGGSGGGGSDGQMTQSPSSVSASVGDRVTITCQASQSIYSYLSWYQQKPGQRPKLLIYKASTLASGVPSRFSGSGSGTDFTLTISSVQPEDFATYYCQQGYTVTNVDKNTFGGGTKVEIKAAEPKSSDKTHTCPPCPAPEAAGGPSVFLFPPKPKDTLMISRTPEVTCVVVSVSHEDPEVKFNWYVDGVEVHNAKTKPREEQYNSTYRVVSVLTVLHQDWLNGKEYKCKVSNKALPAPIEKTISKAKGQPREPQVYVLPPSRDELTKNQVSLLCLVKGFYPSDIAVEWESNGQPENNYLTWPPVLDSDGSFFLYSKLTVDKSRWQQGNVFSCSVMHEALHNHYTQKSLSLSPG
light: NFMLTQPHSVSESPGKTVTISCKRNTGNIGSNYVNWYQQHEGSSPTTIIYRNDKRPDGVSDRFSGSIDRSSKSASLTISNLKTEDEADYFCQSYSSGFIFGGGTKLTVLGQPKAAPSVTLFPPSSEELQANKATLVCLISDFYPGAVTVAWKADSSPVKAGVETTTPSKQSNNKYAASSYLSLTPEQWKSHRSYSCQVTHEGSTVEKTVAPTECS
notes: bivalent for CD3; also called 2x1 anti-(CD3xCD3xCLDN18.2) control
Take B2: in assay [1], the dissociation constant (Kd) stood at 0.00593 µM, the dissociation rate constant (koff) is 0.00778 s⁻¹ and the kon stood at 1.28e+06 M⁻¹ s⁻¹.

B3: v37878 (antibody, V domains shown)
VH: QVQLQESGPGLVKPSETLSLTCAVSGFSLTSYGVHWIRQPPGKGLEWLGVIWPGGGTNFNSALMSRLTISEDTSKNQVSLKLSSVTAADTAVYYCARDRAYGNYLYAMDYWGQGTLVTVSS
VL: DIQMTQSPSSLSASVGDRVTITCRASESVEYYVTSLMQWYQQKPGKAPKLLIYAASNVDSGVPSRFSGSGSGTDFTLTISSLQPEDIATYYCQQSRAVPFTFGGGTKVEIK
notes: OAA format as v34891; also called huTN228 K1109A (VL) OAA
As to B3, in the assay with huCD28, the “Fold-change from WT” value stood at 1.93 fold, the Kd was 0.17 µM, the koff was determined as 0.0117 s⁻¹ and the on-rate constant (kon) was 70800 M⁻¹ s⁻¹.

B4: v37879 (antibody, V domains shown)
VH: QVQLQESGPGLVKPSETLSLTCAVSGFSLTSYGVHWIRQPPGKGLEWLGVIWPGGGTNFNSALMSRLTISEDTSKNQVSLKLSSVTAADTAVYYCARDRAYGNYLYAMDYWGQGTLVTVSS
VL: DIQMTQSPSSLSASVGDRVTITCRASESVEYYVTSLMQWYQQKPGKAPKLLIYAASNVDSGVPSRFSGSGSGTDFTLTISSLQPEDIATYYCQQSRKAPFTFGGGTKVEIK
notes: OAA format as v34891; also called huTN228 V1114A (VL) OAA
For the molecule B4, in the assay with huCD28, the “Fold-change from WT” value is 0.39 fold; the affinity, expressed as Kd, was 0.0347 µM; the koff is 0.00174 s⁻¹; the kon was 50300 M⁻¹ s⁻¹.

B5: v37882 (antibody, V domains shown)
VH: QVQLQESGPGLVKPSETLSLTCAVSGFSLTTYGVHWIRQPPGKGLEWLGVIWPGGGTNFNSALMSRLTISEDTSKNQVSLKLSSVTAADTAVYYCARDRAYGNYLYAMDYWGQGTLVTVSS
VL: DIQMTQSPSSLSASVGDRVTITCRASESVEYYVTSLMQWYQQKPGKAPKLLIYAASNVDSGVPSRFSGSGSGTDFTLTISSLQPEDIATYYCQQSRKVPFTFGGGTKVEIK
notes: OAA format as v34891; also called huTN228 S1036T (VH) OAA
As to B5, in the assay with huCD28, the “Fold-change from WT” value came to 0.59 fold; the affinity, expressed as Kd, was 0.0517 µM; the koff worked out at 0.00311 s⁻¹; the on-rate (kon) was 60500 M⁻¹ s⁻¹.

B6: v37890 (antibody, V domains shown)
VH: QVQLQESGPGLVKPSETLSLTCTVSGFSLTSYGVHWIRQPPGKGLEWLGVIWPGGGTNFNSALMSRLTISEDTSKNQVSLKLSSVTAADTAVYYCARDRAYGNYLYAMDYWGQGTLVTVSS
VL: DIQMTQSPSSLSASVGDRVTITCRASESVEYYVTSLMQWYQQKPGKAPKLLIYAASNVDSGVPSRFSGSGSGTDFTLTISSLQPEDIATYYCQQSRKVPFTFGGGTKVEIK
notes: OAA format as v34891; also called huTN228 A1024T (VH) OAA
Consider B6, for which, in the assay with huCD28, the “Fold-change from WT” value was 0.66 fold, the dissociation constant Kd came out at 0.0578 µM, the off-rate (koff) was 0.00349 s⁻¹ and the kon is 60800 M⁻¹ s⁻¹.

B7: v37884 (antibody, V domains shown)
VH: QVQLQESGPGLVKPSETLSLTCAVSGFSLTSYGVHWIRQPPGKGLEWLGVIWPGGGTNFNSALMSRLTISEDTSKNQVSLKLSSVTAADTAVYYCARDRAYGNYIYAMDYWGQGTLVTVSS
VL: DIQMTQSPSSLSASVGDRVTITCRASESVEYYVTSLMQWYQQKPGKAPKLLIYAASNVDSGVPSRFSGSGSGTDFTLTISSLQPEDIATYYCQQSRKVPFTFGGGTKVEIK
notes: OAA format as v34891; also called huTN228 L1112AI (VH) OAA
In the case of B7, in the assay with huCD28, the “Fold-change from WT” value was 1.51 fold, the Kd came to 0.133 µM, the off-rate (koff) turned out to be 0.00993 s⁻¹ and the on-rate constant (kon) turned out to be 76000 M⁻¹ s⁻¹.

B8: v37898 (antibody, V domains shown)
VH: QVQLQESGPGLVKPSETLSLTCAVSGFSLTSYGVHWIRQPPGKGLEWLGVIWPGGGTNFNSALMSRLTISEDTSKNQVSLKLSSVTAADTAVYYCARDRAYGNYLYAMDYWGQGTLVTVSS
VL: DIQMTQSPSSLSASVGDRVTITCRASESVEYYVTSLLNWYQQKPGKAPKLLIYAASNVDSGVPSRFSGSGSGTDFTLTISSLQPEDIATYYCQQSRKVPFTFGGGTKVEIK
notes: OAA format as v34891
As to B8, in the assay with huCD28, the “Fold-change from WT” value is 0.84 fold; the affinity, expressed as Kd, was 0.0737 µM; the koff was determined as 0.00573 s⁻¹; the kon was determined as 77900 M⁻¹ s⁻¹.

B9: v37891 (antibody, V domains shown)
VH: QVQLQESGPGLVKPSETLSLTCAVSGFSLTSYGVHWIRQPPGKGLEWIGVIWPGGGTNFNSALMSRLTISEDTSKNQVSLKLSSVTAADTAVYYCARDRAYGNYLYAMDYWGQGTLVTVSS
VL: DIQMTQSPSSLSASVGDRVTITCRASESVEYYVTSLMQWYQQKPGKAPKLLIYAASNVDSGVPSRFSGSGSGTDFTLTISSLQPEDIATYYCQQSRKVPFTFGGGTKVEIK
notes: OAA format as v34891; also called huTN228 L1053I (VH) OAA
For B9, in the assay with huCD28, the “Fold-change from WT” value is 0.54 fold, the Kd amounted to 0.0477 µM, the koff is 0.0028 s⁻¹ and the kon was found to be 58800 M⁻¹ s⁻¹.

B10: v37883 (antibody, V domains shown)
VH: QVQLQESGPGLVKPSETLSLTCAVSGFSLTSYGVHWIRQPPGKGLEWLGVIWPGGGTNFNSALMSRLTISEDTSKNQVSLKLSSVTAADTAVYYCARDRAYGQYLYAMDYWGQGTLVTVSS
VL: DIQMTQSPSSLSASVGDRVTITCRASESVEYYVTSLMQWYQQKPGKAPKLLIYAASNVDSGVPSRFSGSGSGTDFTLTISSLQPEDIATYYCQQSRKVPFTFGGGTKVEIK
notes: OAA format as v34891; also called huTN228 N1111AQ (VH) OAA
On to B10, for which, in the assay with huCD28, the “Fold-change from WT” value worked out at 3.81 fold, binding was characterised by a dissociation constant (Kd) of 0.335 µM, the dissociation rate constant (koff) turned out to be 0.029 s⁻¹ and the kon turned out to be 86800 M⁻¹ s⁻¹.

B11: v37897 (antibody, V domains shown)
VH: QVQLQESGPGLVKPSETLSLTCAVSGFSLTSYGVHWIRQPPGKGLEWLGVIWPGGGTNFNSALMSRLTISEDTSKNQFSLKLSSVTAADTAVYYCARDRAYGNYLYAMDYWGQGTLVTVSS
VL: DIQMTQSPSSLSASVGDRVTITCRASESVEYYVTSLMQWYQQKPGKAPKLLIYAASNVDSGVPSRFSGSGSGTDFTLTISSLQPEDIATYYCQQSRKVPFTFGGGTKVEIK
notes: OAA format as v34891; also called huTN228 V1087F (VH) OAA
Take B11: in the assay with huCD28, the “Fold-change from WT” value was 0.88 fold; the affinity, expressed as Kd, was 0.0774 µM; the off-rate (koff) amounted to 0.00487 s⁻¹; the on-rate (kon) was 63000 M⁻¹ s⁻¹.

B12: v37888 (antibody, V domains shown)
VH: QVQLQESGPGLVKPSETLSLTCAVSGFSLTSYGVHWIRQPPGKGLEWLGVIWPGGGTNFNSALMSRLTISEDTSKNQVSLKLSSVTAADTAVYYCARDRAYGNYLYAMDYWGQGTLVTVSS
VL: DIQMTQSPSSLSASVGDRVTITCRASESVEYYVTSLMQWYQQKPGKAPKLLIYAASQVDSGVPSRFSGSGSGTDFTLTISSLQPEDIATYYCQQSRKVPFTFGGGTKVEIK
notes: OAA format as v34891; also called huTN228 N1066Q (VL) OAA
Take B12: in the assay with huCD28, the “Fold-change from WT” value is 0.61 fold, binding was put at a Kd of 0.0538 µM, the off-rate (koff) was determined as 0.00319 s⁻¹ and the kon was found to be 59200 M⁻¹ s⁻¹.

The values are drawn from patent publication US20260028403A1 (Zymeworks, published 2026).
